The values that follow come from paper PMC7126681.

The target in test [1] is His-tagged griffithsin (SeMet-labeled, E. coli-expressed) (Griffithsia sp.) (UniProt P84801). The experiment in a line: crystal structure.
For test [2], the target named is plant-expressed griffithsin (Griffithsia sp.) (UniProt P84801). The experiment in a line: crystal structure.

One may read the stoichiometry N as a count of units in the complex or per binding partner. As for “His-tagged griffithsin (SeMet-labeled, E. coli-expressed) (from UniProt P84801 1-121) (natural protein)”, the stoichiometry N in test [1] came to 2.
“plant-expressed griffithsin (from UniProt P84801 1-121) (natural protein)” registered a stoichiometry N in test [2] of 2.
